B1: library; a variant is named by its letters at N, in order (parent)
chain: GAGACCGCAACTGAAAAGTTGTGGNNNNNATAGTGAGTCGCTGCCTGCAAAGACACAACT

The results in this text go back to the supplement of paper PMC10219994.

± gives the standard deviation of the averaged measurements.

Variants of B1 are the subject of the data set. Description: ligation selection enrichment (abundance after / before one-round selection) (fold); higher = more template-directed ligation activity. Conditions: with T7Psub CACGGAUGCUAAUACGACUCACUAUA; MgCl2 25 mM; 42 °C; 4 h; pH 8.5. The method, boiled down: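 Two independent reactions combined a T7-transcribed RNA ligase library with five randomized core positions (0.75 μM) and RNA substrate (6 μM) in 50 mM EPPS pH 8.5, 25 mM MgCl2, run for 4 h at 42 °C. The ligated products were sequenced on a MiSeq, and only reads with quality ≥30 at all randomized positions were counted. Enrichment is the abundance after ligation divided by the abundance before ligation.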
Regarding ATTTG, the ligation selection enrichment stood at 4.54 ± 1.9. To ATTTT belongs 0.4707 ± 0.0023; to ATTTA, 0.445 ± 0.1; to ATTTC, 0.201 ± 0.0059. To GGTTC belongs 0.216 ± 0.015; to GGTTG, 3.91 ± 0.67. For GGTTA the value was 0.477 ± 0.095. With GGTTT, the ligation selection enrichment is 0.452 ± 0.082.

Take CTTAT: the ligation selection enrichment is 0.512 ± 0.016. For CTTAG the value was 0.243 ± 0.0061; for CTTAA, 0.257 ± 0.012.

Turning to CTTAC, the ligation selection enrichment came out at 0.153 ± 0.015.

Turning to TTAAT, the ligation selection enrichment was found to be 7.9 ± 1.6. For TTAAG the value was 0.69 ± 0.15; for TTAAA, 0.329 ± 0.06; for TTAAC, 0.52 ± 0.0073. To CTCAA belongs 0.116 ± 0.038. CTCAG: the ligation selection enrichment stood at 0.169 ± 0.011. To CTCAC belongs 0.0889 ± 0.01; to CTCAT, 0.104 ± 0.013. For CGTCC the value was 0.192 ± 0.059; for CGTCT, 0.522 ± 0.15. For CGTCG the value was 2.71 ± 0.46; for ATAAT, 2.48 ± 0.27. On to ATAAG, for which the ligation selection enrichment turned out to be 0.373 ± 0.099. To ATAAA belongs 0.228 ± 0.05; to ATAAC, 0.204 ± 0.038. To GTAGC belongs 0.191 ± 0.035; to GTAGG, 0.422 ± 0.043. To GTAGA belongs 1.05 ± 0.13; to GTAGT, 0.166 ± 0.037. On to CGTTA, for which the ligation selection enrichment was found to be 0.263 ± 0.01. To CGTTC belongs 0.124 ± 0.0021; to CGTTG, 2.11 ± 0.56; to CGTTT, 0.379 ± 0.0055. For CGTGT, the ligation selection enrichment came to 0.172 ± 0.066.

On to CGTGG, for which the ligation selection enrichment is 0.261 ± 0.044. To CGTGC belongs 0.196 ± 0.039; to CGTGA, 0.58 ± 0.047. For CTGAG the value was 0.724 ± 0.054. For CTGAT the value was 22 ± 5.4; for CTGAC, 1.07 ± 0.085.

For the variant CTGAA, the ligation selection enrichment came out at 0.424 ± 0.0081. For TTGCG the value was 0.391 ± 0.012; for TTGCC, 0.231 ± 0.025; for TTGCA, 0.683 ± 0.015.

In the case of TTGCT, the ligation selection enrichment stood at 0.947 ± 0.32. To ATTAG belongs 1.02 ± 0.19.

ATTAT: the ligation selection enrichment was 1.85 ± 0.22. To ATTAC belongs 0.217 ± 0.042. To ATTAA belongs 0.524 ± 0.12. To GGTGT belongs 0.181 ± 0.16; to GGTGA, 0.641 ± 0.064. For GGTGG, the ligation selection enrichment was 0.374 ± 0.12. Consider GGTGC, for which the ligation selection enrichment is 0.226 ± 0.03. For the variant ATTCT, the ligation selection enrichment turned out to be 0.471 ± 0.21. To ATTCA belongs 0.611 ± 0.08. For ATTCG the value was 3.01 ± 0.51; for ATTCC, 0.246 ± 0.02; for ATTGG, 0.805 ± 0.035. To ATTGC belongs 0.765 ± 0.2; to ATTGA, 6.7 ± 0.45; to ATTGT, 0.543 ± 0.093. For the variant GTCGT, the ligation selection enrichment came out at 0.297 ± 0.13.

For the variant GTCGC, the ligation selection enrichment was 0.371 ± 0.033.

GTCGA: the ligation selection enrichment is 2.56 ± 0.37. For GTCGG the value was 0.443 ± 0.054; for GGTCT, 0.471 ± 0.12; for GGTCG, 2.83 ± 0.25. To GTGAG belongs 1.24 ± 0.03. To GTGAC belongs 4.35 ± 0.17; to GTGAA, 1.7381 ± 0.00037; to GTGAT, 89.4 ± 3. With TTCAT, the ligation selection enrichment is 3.73 ± 1.1. For TTCAA the value was 0.427 ± 0.13. Regarding TTCAG, the ligation selection enrichment was determined as 0.375 ± 0.049.

For TTCAC, the ligation selection enrichment was 0.38 ± 0.036.

For TTCTC, the ligation selection enrichment is 0.0957 ± 0.032. Turning to TTCTT, the ligation selection enrichment was determined as 0.119 ± 0.006. For TTCTG the value was 0.954 ± 0.089.

With TTCTA, the ligation selection enrichment came to 0.183 ± 0.035.

In the case of TTCGT, the ligation selection enrichment came out at 0.267 ± 0.029. To TTCGG belongs 0.397 ± 0.024. Consider TTCGC, for which the ligation selection enrichment amounted to 0.331 ± 0.0077. In the case of TTCGA, the ligation selection enrichment turned out to be 2.1 ± 0.11. For AGTCC the value was 0.157 ± 0.034. For AGTCT the value was 0.506 ± 0.043; for AGTCG, 3.1 ± 0.045; for ATGTT, 0.166 ± 0.064.

In the case of ATGTC, the ligation selection enrichment was determined as 0.1721 ± 0.0012. For ATGTA the value was 0.206 ± 0.024. For ATGTG the value was 0.566 ± 0.096.

Consider ATGAC, for which the ligation selection enrichment amounted to 1.69 ± 0.044. To ATGAA belongs 0.823 ± 0.12; to ATGAT, 34.6 ± 8.1. To ATGAG belongs 0.834 ± 0.057. To TTGGC belongs 0.191 ± 0.053; to TTGGT, 0.212 ± 0.12; to TTGGG, 0.218 ± 0.023.

As for TTGGA, the ligation selection enrichment came out at 0.294 ± 0.0019.

As for CTCTT, the ligation selection enrichment came out at 0.133 ± 0.075.

For the variant CTCTG, the ligation selection enrichment is 0.298 ± 0.058. Turning to CTCTC, the ligation selection enrichment was found to be 0.116 ± 0.0082. For CTCTA the value was 0.182 ± 0.031. To CTCCC belongs 0.0937 ± 0.042; to CTCCT, 0.503 ± 0.14. Take CTCCA: the ligation selection enrichment came to 0.1489 ± 0.00039.

On to CTCCG, for which the ligation selection enrichment came out at 0.347 ± 0.032.

Turning to ATCCA, the ligation selection enrichment was determined as 0.148 ± 0.027.

With ATCCT, the ligation selection enrichment was found to be 0.468 ± 0.17. To ATCCG belongs 0.765 ± 0.036; to ATCCC, 0.168 ± 0.049. For the variant GTAAC, the ligation selection enrichment is 0.305 ± 0.011. To GTAAG belongs 0.509 ± 0.011. For GTAAT the value was 4.35 ± 0.56; for GTAAA, 0.321 ± 0.067. As for TTTCT, the ligation selection enrichment came out at 0.249 ± 0.052. To TTTCA belongs 0.268 ± 0.026; to TTTCG, 0.632 ± 0.068. For the variant TTTCC, the ligation selection enrichment was determined as 0.258 ± 0.0071. On to TTTGC, for which the ligation selection enrichment is 0.319 ± 0.085. For TTTGT, the ligation selection enrichment was determined as 0.164 ± 0.11. For TTTGA the value was 0.78 ± 0.039.

On to TTTGG, for which the ligation selection enrichment came to 0.466 ± 0.024. For CTAGA the value was 0.263 ± 0.038.

With CTAGG, the ligation selection enrichment is 0.212 ± 0.06. For the variant CTAGC, the ligation selection enrichment came out at 0.123 ± 0.0069. For CTAGT the value was 0.209 ± 0.029; for GTGCA, 0.307 ± 0.043; for GTGCC, 0.209 ± 0.022. To GTGCG belongs 2.12 ± 0.13. To GTGCT belongs 0.813 ± 0.23; to GTGGT, 0.274 ± 0.0063; to GTGGG, 0.31 ± 0.013.

Regarding GTGGA, the ligation selection enrichment stood at 1.76 ± 0.068. To GTGGC belongs 0.18 ± 0.0046; to GTCTG, 0.554 ± 0.068; to GTCTT, 0.114 ± 0.069.

For GTCTC, the ligation selection enrichment is 0.116 ± 0.027. For GTCTA the value was 0.177 ± 0.024; for TTTTG, 1.05 ± 0.27. Turning to TTTTA, the ligation selection enrichment came to 0.205 ± 0.0097. To TTTTT belongs 0.314 ± 0.091; to TTTTC, 0.167 ± 0.027. Regarding GTTAT, the ligation selection enrichment came out at 1.54 ± 0.28. For GTTAA the value was 0.876 ± 0.12; for GTTAC, 0.3144 ± 0.0017. To GTTAG belongs 0.728 ± 0.01; to GTCCC, 0.151 ± 0.0044.
